According to the DeepSol protein solubility set:

Assay: soluble on expression in E. coli; label from the status in PepcDB or PDB records
In the case of “EGVAVMLFYSVGELFQDKAIDKAKRNISALLDVRPEKAVVVRSNEIVTVDPRSVLINEIIEIKAGERVPLDGVMLDEVAAFNTAALTGESVPRDISRGEEVLAGMIVTDKVIRMKVTKPFDKSALARILELVE”, the “soluble on expression in E. coli” value is reported as “not soluble”.
For “EKMTRDEIAYMLTNSEETLDADEIEMLQGVFSLDELMAREVMVPRTDAFMVDIQDDSQAIIQSILKQNYSRIPVYDGDKDNVIGIIHTKSLLKAGFVDGFDNIVWKRILQDPLFVPETIFVDDLLKELRNTQRQMAILLDEYGGMAGLVTLEDLLEEIVGEID”, the “soluble on expression in E. coli” value was “not soluble”.
For “ELISRYPERYCRASSGRCTFAFHPAPEKSFNRGFTNLLLSGKRDTNTLITPESNKSKGAYIGCVTAVNRDKVSIRLRPDNTGAKPSLANGDGLYLLHPDGNMSGTRINVVLPDGSIQVDNPAGIVSGTNVFRNYDIRFEKALSQDNSAVRLIPVSLTLTDVPDGFSLSIEADCYPSAKATITAAHEPATRFDEEQIRKNLTKLGGTPLEAVSVDIRLSHDYFIPLSLIGRLRRDAVQSFIEKASSMPEREEKPVVQRRISPAASSLQEGEQSLSFLANVANKEAETFYRQMGYTSIAPAFEHSHPQGVPLMFSKHCLRYHLGYCPTLQHKESPYREPYYLIHGETRLRLRFDCQHCQMLVYHDSEGIKQT”, the “soluble on expression in E. coli” value was “not soluble”.
For “ENSLIGLNDHTLVTEDDGRRWVTHEPALVYFHNKYWFNIIAMIRNDGVSYYCNLASPYVMDKEALKYIDYDLDIKVLTNGTKHLLDADEYIAHGQLWNYP”, the “soluble on expression in E. coli” value was “not soluble”.
For “ERVKWRKQIEASGARLKSMIDQTPAPTLVLMGDNLVIEQVNTSMLKLLGHEENIVGIPLLTLMPELKGQYIWEQVEKVYREGIPFDQSEVRVSHKRTGMMEDYYYNIAYRPLKEDGRITGMIQVAIDVT”, the “soluble on expression in E. coli” value was “not soluble”.
For “EVLPNFAENARPIEGKKPYTVLQLAGRAVYIKDSCNACHSQLIRPFKSETDRYGMYSVSGEFAYDRPFLWGSKRTGPDLARVGNYRTADWHENHMWDPTSVVPDSIMPSYKHMFKNNADIETAYAEALTVKKVFNVPYDAENGTKLGSWEDAQAEVKAEAQAIVDQMKNQEVKDAFAKGEIKEIVALIAYLNSLK”, the “soluble on expression in E. coli” value was “not soluble”.
For “EVQLVESGGGLVKPGGSLKLSCAASGFAFSSYDMSWVRQTPEKRLEWVAYISSGGGSTYYPDTVKGRFTISRDNAKNTLYLQMSSLKSEDTAMYYCARPDYRSYAMDYWGQGTSVTVSSAKTTAPSVYPLAPVCGDTTGSSVTLGCLVKGYFPEPVTLTWNSGSLSSGVHTFPAVLQSDLYTLSSSVTVTSSTWPSQSITCNVAHPASSTKVDKKIEPRGP”, the “soluble on expression in E. coli” value was “soluble”.
In the case of “EVSTTQNDTLKVMTHNVYMLSTNLYPNWGQTERADLIGAADYIKNQDVVILNEVFDNSASDRLLGNLKKEYPNQTAVLGRSSGSEWDKTLGNYSSSTPEDGGVAIVSKWPIAEKIQYVFAKGCGPDNLSNKGFVYTKIKKNDRFVHVIGTHLQAEDSMCGKTSPASVRTNQLKEIQDFIKNKNIPNNEYVLIGGDMNVNKINAENNNDSEYASMFKTLNASVPSYTGHTATWDATTNSIAKYNFPDSPAEYLDYIIASKDHANPSYIENKVLQPKSPQWTVTSWFQKYTYNDYSDHYPVEATISMK”, the “soluble on expression in E. coli” value is reported as “soluble”.
For “EVVVVGYGTQKKVNLTGAVSAVSAEDLASKPVMSTAQALAGLAPGLSVLQTSGRPGQGATVKIRGTGTFSKAGTDPLVLIDGLSGNIDDVDPNDIQSISFLKDAASASIYGNRAANGVILIETKKGA”, the “soluble on expression in E. coli” value was “not soluble”.
In the case of “EYVYIMTPYLILDSELEHAIQFAAERGVDVRIIMPGIPDKPIPYALAKTYYQALTKSGVKIYEYTLGFVHSKIFLSDNTKAVVGTINLDYRSLYHHFECAVYLYKVDAIQDIYRDYMDTLNKSRLVSLKDINNI”, the “soluble on expression in E. coli” value is reported as “not soluble”.
For “FAKQKKESVISAISTVNPQELKVPSSNLTTALAGRMSGLIAFQTTGEPGKDNAQFFVRGATTFGYKKDPLILIDNIELSTDDLARLNVDDIAQFSIMKDATATALYGARGANGVILVTTKQGVAG”, the “soluble on expression in E. coli” value was “not soluble”.
With “FEHVLVFAPTGSGKTRSIGIPNLFNYPYSVVCNDVKLTLFRTTSGYRERVLGHRCFCWAPADENRITHCYNPLSLISEDKIQRLTDIQRIAHILMPDNKKSDPIWQQASRKLFKVAVLYLLDTPERPTTLGEINRLVKQAGFDDWLASVLEETNHLDPEFYRNGYSYLNNHEKTRSSILETFSGYFELFDDPTIDAATARSDFDLRQLRREKITIYIGFTDDDMERLSPLLTLFWQQLISVMIKNIPDPVDEPYPLLCLIDEFSSLGRIERLRRSLKLLREYRVRCVLIMQYIAQTYEQYTHDEAKAFTNIKTKIAFATEDIFDAEYVSKLLGTRTVKVSAGSTSTQTQGYSESKSYNYQAIPLLRPDEVMRLPEDQTLIMRTGHAPVKAEQMVWY” the “soluble on expression in E. coli” value was “not soluble”.
For “FERGHEFSFAQAVRLLRLLAAAQGREGACPCGVRVRPELSLSFPVADVARIERQSDGYRITARFLGLYGPSSPLPTFYTEELIDEEREDGSASRDFLDVLSHRIFDLWVAGDAKYRLFNRVVEDGSGDDLERLFCLAGLDLAQGQTVLPESGRWLRYVGLLGQVPRSALGLRTMVADALGVPVEVIPCQHRQVSIPPGQRLAVGIAASSLGIDTVVGTNLDDRLGMFRLCLGPLSREQFADLLPGAPGRSTLDLIVELYLDAPLAWDVELTLAPGETPEARLGACRGARVGWDTWLGV”, the “soluble on expression in E. coli” value was “not soluble”.
For “FFSGLFQRKSDAPVTTPAELADAIGLSYDTYTGKQISSQRAMRLTAVFSCVRVLAESVGMLPCNLYHLNGSLKQRATGERLHKLISTHPNGYMTPQEFWELVVTCLCLRGNFYAYKVKAFGEVAELLPVDPGCVVYALGRCQRWPEGDRRECYSAR”, the “soluble on expression in E. coli” value was “soluble”.
In the case of “FGLKNNPSSSRPEGLLFYEYQQAKPKQQTAHFALDQMIYEINQSFGYEIIQRAKKLAAS”, the “soluble on expression in E. coli” value is reported as “not soluble”.
With “FINNPNRHFANNYHFAKELALELKKQDVLELATAPSLQKRLRFYGIKNSNKFYLKALKQADKHDMDKKIVKVKLGKYEKVYQILNYD” the “soluble on expression in E. coli” value was “not soluble”.
With “FKRVSKAAVTASVTVIKAEDLVNTPVANPMELLQGRVPGLNIQMNNGTPGGLPSFSIRGVSDISVQSSGDGEFMMGLTPPLFVVDGIPQEDVTGYDAAGLLSGATVSPLAMIPLEDIANIQVLKDAAATSLYGSKGAYGVILIETKRGETA” the “soluble on expression in E. coli” value was “not soluble”.
With “FPSQDQYLAGLLETPEQKIRAYVLFAHCFTCGKDVAAASRISRFLVQHGFAVFRFDFTGLGNSDGDFANTNFSSNTEDLVSAAYFLEQNYEAPQLLIGHSLGGAAVLAMASQLPKVKGVVTIGAPYEASHVIHNFDAHLEKIDQSGSAKVSLGSREFTIKKQFLDDLRNQTTEHIQHLNKALLVLHSPIDLTVDISDAEKIYKAAKHPKSFVSLDTADHLLSKSIDSEYVAQTISGWASRYIP” the “soluble on expression in E. coli” value was “not soluble”.
For “FPTPKPVPAPQQAAQQQAVTASAEAALAPATPITVTTDTVQAVIDEKSGDLRRLTLLKYKATGDENKPFILFGDGKEYTYVAQSELLDAQGNNILKGIGFSAPKKQYSLEGDKVEVRLSAPETRGLKIDKVYTFTKGSYLVNVRFDIANGSGQTANLSADYRIVRDHSEPEGQGYFTHSYVGPVVYTPEGNFQKVSFSDLDDDAKSGKSEAEYIRKTPTGWLGMIEHHFMSTWILQPKGRQSVCAAGECNIDIKRRNDKLYSTSVSVPLAAIQNGAKAEASINLYAGPQTTSVIANIADNLQLAKDYGKVHWFASPLFWLLNQLHNIIGN”, the “soluble on expression in E. coli” value was “not soluble”.
With “FQVPMSNLLTVHQNLPALPVDATSDEVRKNLMDMFRDRQAFSEHTWKMLLSVCRSWAAWCKLNNRKWFPAEPEDVRDYLLYLQARGLAVKTIQQHLGQLNMLHRRSGLPRPSDSNAVSLVMRRIRKENVDAGERAKQALAFERTDFDQVRSLMENSDRCQDIRNLAFLGIAYNTLLRIAEIARIRVKDISRTDGGRMLIHIGRTKTLVSTAGVEKALSLGVTKLVERWISVSGVADDPNNYLFCRVRKNGVAAPSATSQLSTRALEGIFEATHRLIYGAKDDSGQRYLAWSGHSARVGAARDMARAGVSIPEIMQAGGWTNVNIVMNYIRNLDSETGAMVRLLEDGD” the “soluble on expression in E. coli” value was “soluble”.
For “FSIAVTGATGQLGGLVIQHLMAAVPASQIIAIVRNVEKASTLADQGVEVRHGDYNQPESLQKAFAGVSKLLFISGPHYDNTLLIVQHANVVKAARDAGVKHIAYTGYAFAEESIIPLAHVHLATEYATRTTNIPYTFLRNALYTDFFVNEGLRASTESGAIVTNAGSGIVNSVTRNELALAAATVLTEEGHENKTYNLVSNQPWTFDELAQILSEVSGKKVVHQPVSFEEEKNFMVNAGVPEPFAEITAAIYDAISKGEASKTSDDLQKLIGSLTPLKETVKQALKM”, the “soluble on expression in E. coli” value was “soluble”.
For “FYGEKATLNDGKLTSAELSQMTISGEKHVTEEEFGYCTEYVLKLGMSVSQEVEKQKFNQKKFESKVSKIATSVVVASDKDNGFVKVHAHTEKPNLLLELGLNYGEFELVKIENMNLQVAKQKPAPVKRNIKPAIVVTVPTEAFADRIREDYDIQAILCTDDTGAPSVFSLLEAVKLTHSSNIIFLLHDKNYFLSANEALKQLKHQKISADCVMTTNPIESLAALTVFNSDLNIHTNVKTMRRFVKGFASATITQASKKYKENRIEVNKGDFIAVANNSICVSEKELVQCVFNTIDHLLKKVKKPEFLLAYYGKDITAEEAEAMKEKIEKKYKLFCEFSPGEQKVFSYILGIQ”, the “soluble on expression in E. coli” value was “soluble”.
In the case of “GAAASIQTTVNTLSERISSKLEQEANASAQTKCDIEIGNFYIRQNHGCNLTVKNMCSADADAQLDAVLSAATETYSGLTPEQKAYVPAMFTAALNIQTSVNTVVRDFENYVKQTCNSSAVVDNKLKIQNVIIDECYGAPGSPTNLEFINTGSSKGNCAIKALMQLTTKATTQIAPKQVAGTGVQ”, the “soluble on expression in E. coli” value is reported as “soluble”.
In the case of “GAITKAVFDNEQGQAQRLQTSSSVEHGQMLFKDANLKTPSDVLNAFAKLDSKMVKSHAAELSQLAERAMTEVMLETDSGKNLKALIGDDAVKSLAVRVVKDYGGGVAAAQKNPEVRINQMQAVFDMEVMHLKAAQRHIEGLASTDLNQGVYAEGLPEDAFNKAGVTNNVERAAAWIINASNSKGNDAENITSLLKEYATNGKDLLNMDNLKELHARLVPNVERDYRGPNISGGTLPSSIGGEGMLKQHIEGFLKENPVADKDLGKHLFAGVIGYHGFTDGNGRMGRMLYAIAELRNDSFNPLAMNAENSLHGIK”, the “soluble on expression in E. coli” value is reported as “soluble”.
In the case of “GAMAGSIRSKLSAIDVRQLGTVDYRTAWQLQRELADARVAGGADTLLLLEHPAVYTAGRRTETHERPIDGTPVVDTDRGGKITWHGPGQLVGYPIIGLAEPLDVVNYVRRLEESLIQVCADLGLHAGRVDGRSGVWLPGRPARKVAAIGVRVSRATTLHGFALNCDCDLAAFTAIVPCGISDAAVTSLSAELGRTVTVDEVRATVAAAVCAALDGVLPVGDRVPSHAVPSPL”, the “soluble on expression in E. coli” value is reported as “soluble”.
For “GAMAWGSSWLLLKNLTAQIDGPTLRTLCMQHGPLVSFHPYLNQGIALCKYTTREEANKAQMALNNCVLANTTIFAESPSENEVQSIMQH”, the “soluble on expression in E. coli” value was “soluble”.
With “GAMDPAVMKIEYYSQVLDMEWGVNVLYPDANRVEEPECEDIPVLYLLHGMSGNHNSWLKRTNVERLLRGTNLIVVMPNTSNGWYTDTQYGFDYYTALAEELPQVLKRFFPNMTSKREKTFIAGLSMGGYGCFKLALTTNRFSHAASFSGALSFQNFSPESQNLGSPAYWRGVFGEIRDWTTSPYSLESLAKKSDKKTKLWAWCGEQDFLYEANNLAVKNLKKLGFDVTYSHSAGTHEWYYWEKQLEVFLTTLPIDFKLEERLT” the “soluble on expression in E. coli” value was “soluble”.
